# According to patent US20070065882:
# Molecular target: PKCβII in mouse brain (UniProt P68404)
# Sequence (P68404 other isoform, or with tags, fused parts or gaps): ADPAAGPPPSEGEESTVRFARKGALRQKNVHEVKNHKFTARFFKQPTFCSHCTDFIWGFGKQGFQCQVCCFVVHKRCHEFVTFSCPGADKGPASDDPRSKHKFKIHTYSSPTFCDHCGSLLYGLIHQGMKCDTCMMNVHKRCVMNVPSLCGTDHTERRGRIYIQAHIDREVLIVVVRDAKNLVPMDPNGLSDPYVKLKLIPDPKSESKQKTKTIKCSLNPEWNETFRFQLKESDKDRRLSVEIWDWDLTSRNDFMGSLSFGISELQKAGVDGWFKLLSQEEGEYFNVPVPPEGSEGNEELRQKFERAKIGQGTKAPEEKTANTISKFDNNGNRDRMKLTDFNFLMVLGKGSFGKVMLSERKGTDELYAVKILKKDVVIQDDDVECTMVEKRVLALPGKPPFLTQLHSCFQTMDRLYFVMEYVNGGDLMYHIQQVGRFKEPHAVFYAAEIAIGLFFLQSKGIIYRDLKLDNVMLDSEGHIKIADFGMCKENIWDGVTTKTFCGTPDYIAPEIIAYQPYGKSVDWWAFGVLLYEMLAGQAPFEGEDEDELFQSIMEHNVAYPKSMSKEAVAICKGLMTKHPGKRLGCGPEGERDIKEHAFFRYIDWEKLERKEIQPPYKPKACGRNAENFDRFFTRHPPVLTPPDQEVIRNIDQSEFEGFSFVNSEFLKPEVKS
substance,measurement,value
"recombinant human AChE-R, 'readthrough' variant of acetylcholinesterase","PKC activity in brain homogenates (PKC assay kit, Upstate Biotechnology)",Note the elevation of PKC activity in the different brain regions in the AChE-R transgenics as compared to FVB/N controls
